According to patent US20230381316A1 (METHODIST HOSPITAL, published 2023):
Residue numbers refer to the chain shown, from its start.

B1: anti-PSMA mouse monoclonal antibody #1377 (antibody, V domains shown)
VH: VQLQQPGAALVRPGASVRLSCKASGYSFTYYWMNWVMQRPGQGLEWIGMIHPSDSETRLSQKFRDKATLTVDKSSSTVYMQLNSPTSDDSAVYYCARDGNFPYYALDYWGQGTSVTVSS
VL: DVVLTQAPLSLPVSLGDQASISCRSSQSLEYSNGNTYLHWYLQKPGQSPELLIYTVSNRFSGVPDRFSGSGSGTDFTLKIHRVEAEDLGVYFCSQSTHVPTFGGGTKLEIKR
notes: Full-length mouse IgG from a hybridoma
B2: PSMA(444)-CAR (CAR PMC 444, clone 219, VH-linker-VL) (other)
chain: VQLQQSGPELEKPGASVKMSCKASGYSFTGYNVNWVRQNNGKSLEWIGNIDPLHGGTTYNQKFKAKATLTVDRSSSTAYLQLKNLTSEDSAVYYCARSSRFDYWGQGTTLTVSSGGGGSGGGGSGGGGSDIVMTQSHKFMSTSVGDRVNITCKASQDVGTAVAWYQQKPGQSPKLLIYWASTRHTGVPDRFTGSGSGTDFTLTISNVQSEDLADYFCHQFTSYPFTFGSGTSLEMKRTTTPAPRPPTPAPTIASQPLSLRPEACRPAAGGAVHTRGLDFACDIYIWAPLAGTCGVLLLSLVITLYCKRGRKKLLYIFKQPFMRPVQTTQEEDGCSCRFPEEEEGGCELRVKFSRSADAPAYKQGQNQLYNELNLGRREEYDVLDKRRGRDPEMGGKPRRKNPQEGLYNELQKDKMAEAYSEIGMKGERRRGKGHDGLYQGLSTATKDTYDALHMQALPPR
notes: Chimeric antigen receptor (scFv-CD8a TM-4-1BB-CD3zeta) on transduced human T cells; also called PMC444 CAR
B3: PSMA(447)-CAR (CAR PMC 447, clone 1352, VH-linker-VL) (other)
chain: VKLQQSGPELEKPGASVKISCKASGYSFTGYNVNWVKQSNGKSLEWIGNIDPYHGGTTYNQKFEAKATLTVDKSSSTAYMQLKSLTSEDSAVYYCARSSRFDYWGQGTTLTVSSGGGGSGGGGSGGGGSDIVMTQSHKFMSTSVGDRVNITCKASQDVGTAVAWYQQKPGQSPKFLIYWASTRHTGVPDRFTGSGSGTDFTLTISNVQSEDLADYFCHQYTSYPFTFGSGTKLEMKRTTTPAPRPPTPAPTIASQPLSLRPEACRPAAGGAVHTRGLDFACDIYIWAPLAGTCGVLLLSLVITLYCKRGRKKLLYIFKQPFMRPVQTTQEEDGCSCRFPEEEEGGCELRVKFSRSADAPAYKQGQNQLYNELNLGRREEYDVLDKRRGRDPEMGGKPRRKNPQEGLYNELQKDKMAEAYSEIGMKGERRRGKGHDGLYQGLSTATKDTYDALHMQALPPR
notes: Chimeric antigen receptor on transduced human T cells; also called PMC447 CAR
B4: PSMA(7LH)-CAR, derived from antibody #1352 (VL-linker-VH) (other)
chain: DIVMTQSHKFMSTSVGDRVNITCKASQDVGTAVAWYQQKPGQSPKFLIYWASTRHTGVPDRFTGSGSGTDFTLTISNVQSEDLADYFCHQYTSYPFTFGSGTKLEMKRGGGGSGGGGSGGGGSVKLQQSGPELEKPGASVKISCKASGYSFTGYNVNWVKQSNGKSLEWIGNIDPYHGGTTYNQKFEAKATLTVDKSSSTAYMQLKSLTSEDSAVYYCARSSRFDYWGQGTTLTVSSTTTPAPRPPTPAPTIASQPLSLRPEACRPAAGGAVHTRGLDFACDIYIWAPLAGTCGVLLLSLVITLYCKRGRKKLLYIFKQPFMRPVQTTQEEDGCSCRFPEEEEGGCELRVKFSRSADAPAYKQGQNQLYNELNLGRREEYDVLDKRRGRDPEMGGKPRRKNPQEGLYNELQKDKMAEAYSEIGMKGERRRGKGHDGLYQGLSTATKDTYDALHMQALPPR
notes: Chimeric antigen receptor on transduced human T cells
B5: anti-PSMA mouse monoclonal antibody #219 (antibody, V domains shown)
VH: VQLQQSGPELEKPGASVKMSCKASGYSFTGYNVNWVRQNNGKSLEWIGNIDPLHGGTTYNQKFKAKATLTVDRSSSTAYLQLKNLTSEDSAVYYCARSSRFDYWGQGTTLTVSS
VL: DIVMTQSHKFMSTSVGDRVNITCKASQDVGTAVAWYQQKPGQSPKLLIYWASTRHTGVPDRFTGSGSGTDFTLTISNVQSEDLADYFCHQFTSYPFTFGSGTSLEMKR
notes: as for B1
B6: anti-PSMA mouse monoclonal antibody #1352 (antibody, IgG2b, V domains shown)
VH: B5 VH with Q2K, M19I, R37K, N39S, L53Y, K64E, R73K, L80M, N84S
VL: B5 VL with L46F, F91Y, S103K
B7: PSMA(8LH)-CAR, derived from antibody #1207 (VL-linker-VH) (other)
chain: IVLTQSPAIMSASPGVKVTMTCRASSSVDSSYLHWYQQKSGASPQVWIYSTSNLASGVPARFSGSGSGTSYSLTISSVEAEDAATYYCQQYSGYPLTFGGGTKLEIKRGGGGSGGGGSGGGGSVKLQQSGPGLVKPSQSLSLTCAVTGYSITSDYAWNWIRKFPGNKLEWMGYISYSGRTTYNPSLESRISITRDTSKNQFFLQLNSVTTEDTATYYCARCYYGSSSRWYGMDYWGRGTSVAVSSTTTPAPRPPTPAPTIASQPLSLRPEACRPAAGGAVHTRGLDFACDIYIWAPLAGTCGVLLLSLVITLYCKRGRKKLLYIFKQPFMRPVQTTQEEDGCSCRFPEEEEGGCELRVKFSRSADAPAYKQGQNQLYNELNLGRREEYDVLDKRRGRDPEMGGKPRRKNPQEGLYNELQKDKMAEAYSEIGMKGERRRGKGHDGLYQGLSTATKDTYDALHMQALPPR
notes: as for B4
B8: PSMA(6LH)-CAR, derived from antibody #1366 (VL-linker-VH) (other)
chain: TVLTQSPAIMSASPGEKVTMTCRASSSVSSSYLHWYQQKSSASPKLWIYRTSNLASGVPARFSGSGSGTSYSLTISSLEAEDAATYYCQQYSGYPLTFGAGTKLELKRGGGGSGGGGSGGGGSVKLQESGPGLVAPSQSLSITCTVSGFSLTDYGVSWIRQPPGKGLEWLGVIWSDGNTYYNSPLKSRLSINKDNSKSQVFLKMNSLQTDDSAMYYCARHKVYTMDYWGQGTSVTVSSTTTPAPRPPTPAPTIASQPLSLRPEACRPAAGGAVHTRGLDFACDIYIWAPLAGTCGVLLLSLVITLYCKRGRKKLLYIFKQPFMRPVQTTQEEDGCSCRFPEEEEGGCELRVKFSRSADAPAYKQGQNQLYNELNLGRREEYDVLDKRRGRDPEMGGKPRRKNPQEGLYNELQKDKMAEAYSEIGMKGERRRGKGHDGLYQGLSTATKDTYDALHMQALPPR
notes: as for B4
B9: PSMA(446)-CAR (CAR PMC 446, clone 1366, VH-linker-VL) (other)
chain: VKLQESGPGLVAPSQSLSITCTVSGFSLTDYGVSWIRQPPGKGLEWLGVIWSDGNTYYNSPLKSRLSINKDNSKSQVFLKMNSLQTDDSAMYYCARHKVYTMDYWGQGTSVTVSSGGGGSGGGGSGGGGSTVLTQSPAIMSASPGEKVTMTCRASSSVSSSYLHWYQQKSSASPKLWIYRTSNLASGVPARFSGSGSGTSYSLTISSLEAEDAATYYCQQYSGYPLTFGAGTKLELKRTTTPAPRPPTPAPTIASQPLSLRPEACRPAAGGAVHTRGLDFACDIYIWAPLAGTCGVLLLSLVITLYCKRGRKKLLYIFKQPFMRPVQTTQEEDGCSCRFPEEEEGGCELRVKFSRSADAPAYKQGQNQLYNELNLGRREEYDVLDKRRGRDPEMGGKPRRKNPQEGLYNELQKDKMAEAYSEIGMKGERRRGKGHDGLYQGLSTATKDTYDALHMQALPPR
notes: Chimeric antigen receptor on transduced human T cells; also called PMC446 CAR
B10: anti-PSMA mouse monoclonal antibody #1207 (antibody, V domains shown)
VH: VKLQQSGPGLVKPSQSLSLTCAVTGYSITSDYAWNWIRKFPGNKLEWMGYISYSGRTTYNPSLESRISITRDTSKNQFFLQLNSVTTEDTATYYCARCYYGSSSRWYGMDYWGRGTSVAVSS
VL: IVLTQSPAIMSASPGVKVTMTCRASSSVDSSYLHWYQQKSGASPQVWIYSTSNLASGVPARFSGSGSGTSYSLTISSVEAEDAATYYCQQYSGYPLTFGGGTKLEIKR
notes: as for B1
B11: anti-PSMA mouse monoclonal antibody #1366 (antibody, V domains shown)
VH: VKLQESGPGLVAPSQSLSITCTVSGFSLTDYGVSWIRQPPGKGLEWLGVIWSDGNTYYNSPLKSRLSINKDNSKSQVFLKMNSLQTDDSAMYYCARHKVYTMDYWGQGTSVTVSS
VL: B10 VL with I1T, V16E, D29S, G41S, Q45K, V46L, S50R, V78L, G100A, I106L
notes: as for B1
B12: PSMA(448)-CAR (CAR PMC 448, clone 1207, VH-linker-VL) (other)
chain: VKLQQSGPGLVKPSQSLSLTCAVTGYSITSDYAWNWIRKFPGNKLEWMGYISYSGRTTYNPSLESRISITRDTSKNQFFLQLNSVTTEDTATYYCARCYYGSSSRWYGMDYWGRGTSVAVSSGGGGSGGGGSGGGGSIVLTQSPAIMSASPGVKVTMTCRASSSVDSSYLHWYQQKSGASPQVWIYSTSNLASGVPARFSGSGSGTSYSLTISSVEAEDAATYYCQQYSGYPLTFGGGTKLEIKRTTTPAPRPPTPAPTIASQPLSLRPEACRPAAGGAVHTRGLDFACDIYIWAPLAGTCGVLLLSLVITLYCKRGRKKLLYIFKQPFMRPVQTTQEEDGCSCRFPEEEEGGCELRVKFSRSADAPAYKQGQNQLYNELNLGRREEYDVLDKRRGRDPEMGGKPRRKNPQEGLYNELQKDKMAEAYSEIGMKGERRRGKGHDGLYQGLSTATKDTYDALHMQALPPR
notes: Chimeric antigen receptor on transduced human T cells; also called PMC448 CAR

Key:
[1] = target: T1, prostate-specific membrane antigen (PSMA) on PSMA-positive prostate cancer cells (LNCaP, VCaP) (human, UniProt Q04609 1-750); assay: flow cytometry on LNCaP cells
T1 construct: Endogenous PSMA on LNCaP and VCaP cells; also called FOLH1; PSMA antigen on cancer cell surface
T1 sequence (Q04609 whole entry): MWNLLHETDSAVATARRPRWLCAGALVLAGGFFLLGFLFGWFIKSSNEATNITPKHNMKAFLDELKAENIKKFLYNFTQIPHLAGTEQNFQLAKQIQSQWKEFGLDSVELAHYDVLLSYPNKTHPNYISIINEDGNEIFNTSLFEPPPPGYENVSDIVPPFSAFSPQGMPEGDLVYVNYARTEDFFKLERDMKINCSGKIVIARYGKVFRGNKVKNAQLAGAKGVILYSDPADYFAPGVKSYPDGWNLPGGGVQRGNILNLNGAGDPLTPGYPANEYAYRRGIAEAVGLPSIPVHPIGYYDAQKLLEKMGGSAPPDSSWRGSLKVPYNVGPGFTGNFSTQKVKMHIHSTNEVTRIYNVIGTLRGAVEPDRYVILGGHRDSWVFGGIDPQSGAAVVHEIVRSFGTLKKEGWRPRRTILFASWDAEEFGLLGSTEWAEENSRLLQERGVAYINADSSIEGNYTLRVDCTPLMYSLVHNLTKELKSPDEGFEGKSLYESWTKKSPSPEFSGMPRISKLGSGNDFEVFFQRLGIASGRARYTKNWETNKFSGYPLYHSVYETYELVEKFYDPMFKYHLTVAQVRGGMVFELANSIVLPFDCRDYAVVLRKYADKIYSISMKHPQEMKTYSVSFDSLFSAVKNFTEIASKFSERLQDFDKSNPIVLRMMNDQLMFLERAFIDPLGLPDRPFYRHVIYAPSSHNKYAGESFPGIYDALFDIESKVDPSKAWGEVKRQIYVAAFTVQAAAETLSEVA

[2] = target: T2, Fluorescence-labeled PSMA protein (biotin-labelled purified PSMA protein with Alexa Fluor 647 Streptavidin) (human, UniProt Q04609 44-750, biotin label (EZ link Sulfo-NHS-Biotin), incubated with Alexa Fluor 647 Streptavidin); assay: flow cytometry of CAR T cells with fluorescence labeled recombinant PSMA protein as probe
T2 construct: This is the purified PSMA protein of m9 after labelling; also called fluorescence labeled recombinant PSMA protein; home-made fluorescent probe
T2 sequence (Q04609 44-750): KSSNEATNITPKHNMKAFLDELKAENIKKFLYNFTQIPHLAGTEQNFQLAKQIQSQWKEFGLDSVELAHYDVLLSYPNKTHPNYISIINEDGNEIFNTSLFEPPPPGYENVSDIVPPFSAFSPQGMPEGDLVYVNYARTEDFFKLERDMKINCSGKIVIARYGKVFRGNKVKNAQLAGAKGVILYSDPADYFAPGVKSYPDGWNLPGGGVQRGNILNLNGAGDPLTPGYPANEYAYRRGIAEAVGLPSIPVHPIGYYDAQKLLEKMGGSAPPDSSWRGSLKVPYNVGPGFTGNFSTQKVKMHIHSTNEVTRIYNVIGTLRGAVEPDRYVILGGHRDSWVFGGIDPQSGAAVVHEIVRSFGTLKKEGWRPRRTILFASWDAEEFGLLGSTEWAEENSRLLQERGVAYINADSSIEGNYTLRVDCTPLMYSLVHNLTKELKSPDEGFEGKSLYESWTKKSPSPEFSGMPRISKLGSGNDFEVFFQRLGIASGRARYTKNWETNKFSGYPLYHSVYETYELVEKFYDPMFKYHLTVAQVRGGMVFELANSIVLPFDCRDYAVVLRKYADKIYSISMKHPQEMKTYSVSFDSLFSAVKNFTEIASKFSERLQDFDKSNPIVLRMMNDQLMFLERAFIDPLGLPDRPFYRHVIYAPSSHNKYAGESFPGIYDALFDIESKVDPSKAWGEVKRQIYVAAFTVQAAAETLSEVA
From the text: (A3). In vitro cytotoxicity of PSMA-CAR T cells. Human peripheral blood mononuclear cells (PBMC) were isolated from leukopak following a SOP published by Hanc (HIV/ADIS Network Coordination). T cells including CD4+ and CD8+ T cells were isolated from PBMC with human T cell isolation kit (Miltenyi Biotec). T cells were activated by Dvnabeads human T-Activator CD3/CD28 (ThermoFisher) for 24 hrs, then transduced with lentiviruses expressing PSMA-CARs. Transduced cells were expanded for 8 to 21 days in culture. Flow cytometry was performed to determine the percentage of T cells that express functional CAR. To prepare home-made fluorescent probe, we labeled purified PSMA protein with biotin using EZ link Sulfo-NHS-Biotin (ThermoFisher), then incubated with Alexa Fluor® 647 Streptavidin (BioLegend) to obtain the probe.
For IFNγ induction (FIGS. 14C, 14D)), 4LH-CAR, 7LH-CAR, 5LH-CAR appeared to be the strongest. […] We also tested the in vitro killing on PSMA-positive VCaP cells, PSMA-negative wild type PC3 cells, and PSMA-positive PC3-PSMA stable cells. As anticipated, the PSMA-CAR T cell cytotoxicity IFNγ induction were strictly PSMA-dependent. Moreover, using fluorescence labeled recombinant PSMA protein as probe, flow cytometry analysis was performed on non-transduced and 11 PSMA-CAR T cells.

[3] = target: T1, prostate-specific membrane antigen …; assay: flow cytometry on mixed PC3 and LNCaP cells, 20 µg antibody, FITC anti-mouse IgG
Protocol: Next, the cells were incubated with FITC anti-mouse IgG secondary antibody (Biolegend, cat #406001), followed by flow cytometric analysis.

Binder	binding result [1]	percentage of CAR T cells positive for PSMA binding [2]	also measured
B1	binds	–	–
B2	–	47.1%	–
B3	–	3.08%	–
B4	–	35.5%	–
B5	binds	–	–
B6	–	–	binding result [3]: binds
B7	–	16%	–
B8	–	17.8%	–
B9	–	19.6%	–
B10	binds	–	–
B11	binds	–	–
B12	–	2.23%	–
